Assay results as given in the Immune Epitope Database (IEDB).

Legend:
Assay in all cases: IEDB peptide-MHC binding, purified MHC/competitive/radioactivity; filed as Kd, often an IC50 or EC50 that approximates it; ≥ and ≤ were set here for values at or beyond the usual limits of such assays
HLA-A*31:01 = target: HLA-A*31:01
HLA-A*33:01 = target: HLA-A*33:01
HLA-A*68:01 = target: HLA-A*68:01
HLA-A*11:01 = target: HLA-A*11:01
HLA-A*03:01 = target: HLA-A*03:01
[1] = source organism: Mammarenavirus lassaense
[2] = source organism: Dengue virus 4 Philippines/H241/1956
[3] = source organism: Vaccinia virus WR
[4] = source organism: Dengue virus 2 Jamaica/1409/1983
[5] = source organism: Mammarenavirus mopeiaense
[6] = source organism: SARS coronavirus Tor2
[7] = source organism: Mammarenavirus guanaritoense
[8] = source organism: Mammarenavirus brazilense
[9] = source organism: Mammarenavirus juninense
[10] = source organism: Dengue virus 3 Martinique/1243/1999
[11] = source organism: Dengue virus 1 Brazil/97-11/1997
[12] = source organism: Dengue virus 4 Dominica/814669/1981
[13] = source organism: Lymphocytic choriomeningitis virus (strain Armstrong)

## TCQGSDDIK
HLA-A*31:01; [1]
  Kd: 5090 nM
HLA-A*33:01; [1]
  Kd: 2840 nM
HLA-A*68:01; [1]
  Kd: 7390 nM
HLA-A*11:01; [1]
  Kd: 16500 nM
HLA-A*03:01; [1]
  Kd: ≥ 78000 nM

## KVASAGISYK
HLA-A*11:01; [2]
  Kd: 22.7 nM
HLA-A*03:01; [2]
  Kd: 3.14 nM

## DIEIGNFYIR
HLA-A*31:01; [3]
  Kd: 822 nM
HLA-A*33:01; [3]
  Kd: 129 nM
HLA-A*68:01; [3]
  Kd: 49 nM
HLA-A*11:01; [3]
  Kd: 10400 nM
HLA-A*03:01; [3]
  Kd: 845 nM

## PTFAAGLLLR
HLA-A*68:01; [4]
  Kd: 837 nM

## KCFGNTAIAK
HLA-A*31:01; [5]
  Kd: 528 nM
HLA-A*33:01; [5]
  Kd: 3380 nM
HLA-A*68:01; [5]
  Kd: 7870 nM
HLA-A*11:01; [5]
  Kd: 7370 nM
HLA-A*03:01; [5]
  Kd: 195 nM

## RQILDNAAK
HLA-A*31:01; [3]
  Kd: 1110 nM
HLA-A*33:01; [3]
  Kd: ≥ 77700 nM
HLA-A*68:01; [3]
  Kd: ≥ 35300 nM
HLA-A*11:01; [3]
  Kd: 144 nM
HLA-A*03:01; [3]
  Kd: 117 nM

## NFLKEQHCQK
HLA-A*31:01; [6]
  Kd: 1470 nM
HLA-A*33:01; [6]
  Kd: 1220 nM
HLA-A*68:01; [6]
  Kd: ≥ 36400 nM
HLA-A*11:01; [6]
  Kd: 13300 nM
HLA-A*03:01; [6]
  Kd: 7280 nM

## EFGRAKGSR
HLA-A*33:01; [2]
  Kd: 38.1 nM

## MQNCLLRLK
HLA-A*31:01; [6]
  Kd: 13.1 nM
HLA-A*33:01; [6]
  Kd: 12100 nM
HLA-A*68:01; [6]
  Kd: 1370 nM
HLA-A*11:01; [6]
  Kd: 17.7 nM
HLA-A*03:01; [6]
  Kd: 98.3 nM

## FFTTSLFLH
HLA-A*31:01; [7]
  Kd: 1190 nM
HLA-A*33:01; [7]
  Kd: ≥ 77700 nM
HLA-A*68:01; [7]
  Kd: ≥ 24800 nM
HLA-A*11:01; [7]
  Kd: ≥ 77900 nM
HLA-A*03:01; [7]
  Kd: ≥ 55700 nM

## CSSLTEEFYH
HLA-A*31:01; [8]
  Kd: 3360 nM
HLA-A*68:01; [8]
  Kd: ≥ 31900 nM
HLA-A*11:01; [8]
  Kd: 8680 nM

## FLEFSNRVY
HLA-A*31:01; [3]
  Kd: 1330 nM
HLA-A*33:01; [3]
  Kd: 8430 nM
HLA-A*68:01; [3]
  Kd: 10100 nM
HLA-A*11:01; [3]
  Kd: 3210 nM
HLA-A*03:01; [3]
  Kd: 43.5 nM

## LTTLSRTSKK
HLA-A*11:01; [4]
  Kd: 1860 nM

## TVNICIFYDR
HLA-A*31:01; [3]
  Kd: 12.3 nM
HLA-A*33:01; [3]
  Kd: 72.8 nM
HLA-A*68:01; [3]
  Kd: 27.7 nM
HLA-A*11:01; [3]
  Kd: 151 nM
HLA-A*03:01; [3]
  Kd: 414 nM

## RNPYENLLYK
HLA-A*31:01; [9]
  Kd: 4760 nM
HLA-A*33:01; [9]
  Kd: ≥ 35900 nM
HLA-A*68:01; [9]
  Kd: 12600 nM
HLA-A*11:01; [9]
  Kd: 628 nM
HLA-A*03:01; [9]
  Kd: 2470 nM

## TLITLILSNK
HLA-A*31:01; [3]
  Kd: 570 nM
HLA-A*33:01; [3]
  Kd: 8500 nM
HLA-A*68:01; [3]
  Kd: 3.73 nM
HLA-A*11:01; [3]
  Kd: 3.41 nM
HLA-A*03:01; [3]
  Kd: 1.61 nM

## QTVKPGNFNK
HLA-A*31:01; [6]
  Kd: 1510 nM
HLA-A*33:01; [6]
  Kd: 10500 nM
HLA-A*68:01; [6]
  Kd: 418 nM
HLA-A*11:01; [6]
  Kd: 249 nM
HLA-A*03:01; [6]
  Kd: 2730 nM

## IMFMLIFNVK
HLA-A*31:01; [3]
  Kd: 663 nM
HLA-A*33:01; [3]
  Kd: 1220 nM
HLA-A*68:01; [3]
  Kd: 136 nM
HLA-A*11:01; [3]
  Kd: 200 nM
HLA-A*03:01; [3]
  Kd: 157 nM

## YQNKVVKVLR
HLA-A*33:01; [2]
  Kd: 446 nM

## KVVDTFISY
HLA-A*31:01; [3]
  Kd: 1170 nM
HLA-A*33:01; [3]
  Kd: 12300 nM
HLA-A*68:01; [3]
  Kd: 3380 nM
HLA-A*11:01; [3]
  Kd: 4.98 nM
HLA-A*03:01; [3]
  Kd: 7.9 nM

## GVVREFLTR
HLA-A*31:01; [6]
  Kd: 899 nM
HLA-A*33:01; [6]
  Kd: 13200 nM
HLA-A*68:01; [6]
  Kd: 186 nM
HLA-A*11:01; [6]
  Kd: 522 nM
HLA-A*03:01; [6]
  Kd: 19000 nM

## SVFYLYLTFY
HLA-A*31:01; [6]
  Kd: 2860 nM
HLA-A*33:01; [6]
  Kd: 6010 nM
HLA-A*68:01; [6]
  Kd: 99.4 nM
HLA-A*11:01; [6]
  Kd: 196 nM
HLA-A*03:01; [6]
  Kd: 1790 nM

## IITSTKTIEY
HLA-A*31:01; [3]
  Kd: 6630 nM
HLA-A*33:01; [3]
  Kd: 14100 nM
HLA-A*68:01; [3]
  Kd: 5720 nM
HLA-A*11:01; [3]
  Kd: 917 nM
HLA-A*03:01; [3]
  Kd: 82.2 nM

## DQDALFAYTK
HLA-A*31:01; [6]
  Kd: 3720 nM
HLA-A*33:01; [6]
  Kd: 9570 nM
HLA-A*68:01; [6]
  Kd: 1270 nM
HLA-A*11:01; [6]
  Kd: 2600 nM
HLA-A*03:01; [6]
  Kd: 4250 nM

## FLLNKEMYLK
HLA-A*31:01; [6]
  Kd: 2080 nM
HLA-A*33:01; [6]
  Kd: 2510 nM
HLA-A*68:01; [6]
  Kd: 986 nM
HLA-A*11:01; [6]
  Kd: 153 nM
HLA-A*03:01; [6]
  Kd: 59.5 nM

## SIMKSVGTGK
HLA-A*11:01; [10]
  Kd: 20.5 nM
HLA-A*03:01; [10]
  Kd: 8.3 nM

## RLGLVLDDYK
HLA-A*31:01; [3]
  Kd: 2220 nM
HLA-A*33:01; [3]
  Kd: ≥ 70000 nM
HLA-A*68:01; [3]
  Kd: 506 nM
HLA-A*11:01; [3]
  Kd: 37.8 nM
HLA-A*03:01; [3]
  Kd: 48.9 nM

## VTAASAAQRR
HLA-A*68:01; [10]
  Kd: 42.4 nM

## TFAAGLLLR
HLA-A*33:01; [4]
  Kd: 68.1 nM

## VVVQIDPEY
HLA-A*31:01; [3]
  Kd: ≥ 77900 nM
HLA-A*33:01; [3]
  Kd: ≥ 77700 nM
HLA-A*68:01; [3]
  Kd: 110 nM
HLA-A*11:01; [3]
  Kd: 2340 nM
HLA-A*03:01; [3]
  Kd: 141 nM

## ALNDTWKMEK
HLA-A*11:01; [4]
  Kd: 392 nM
HLA-A*03:01; [4]
  Kd: 82.4 nM

## TIEEGRTLR
HLA-A*33:01; [11]
  Kd: 382 nM

## HINTLIQYR
HLA-A*31:01; [3]
  Kd: 6.05 nM
HLA-A*33:01; [3]
  Kd: 16.5 nM
HLA-A*68:01; [3]
  Kd: 14.8 nM
HLA-A*11:01; [3]
  Kd: 197 nM
HLA-A*03:01; [3]
  Kd: 191 nM

## KVKTELVMDK
HLA-A*31:01; [3]
  Kd: 120 nM
HLA-A*33:01; [3]
  Kd: ≥ 70000 nM
HLA-A*68:01; [3]
  Kd: ≥ 48600 nM
HLA-A*11:01; [3]
  Kd: 409 nM
HLA-A*03:01; [3]
  Kd: 1330 nM

## ATCVYNMMGK
HLA-A*11:01; [11]
  Kd: 20.1 nM
HLA-A*03:01; [11]
  Kd: 1.91 nM

## GTSIFAGHLK
HLA-A*68:01; [10]
  Kd: 114 nM
HLA-A*11:01; [10]
  Kd: 23.5 nM
HLA-A*03:01; [10]
  Kd: 3.86 nM

## MTLMKGASRR
HLA-A*31:01; [12]
  Kd: 81.9 nM
HLA-A*33:01; [12]
  Kd: 68.5 nM
HLA-A*68:01; [12]
  Kd: 39.7 nM

## SALTLHWFR
HLA-A*31:01; [2]
  Kd: 0.247 nM
HLA-A*33:01; [2]
  Kd: 3.7 nM
HLA-A*68:01; [2]
  Kd: 2.37 nM

## ILKRWGQLKK
HLA-A*03:01; [2]
  Kd: 38.5 nM

## IVTMFEALPH
HLA-A*31:01; [13]
  Kd: ≥ 70000 nM
HLA-A*33:01; [13]
  Kd: 75.1 nM
HLA-A*68:01; [13]
  Kd: 5840 nM

## WSYYMATLK
HLA-A*68:01; [2]
  Kd: 1.83 nM
HLA-A*11:01; [2]
  Kd: 16.1 nM
HLA-A*03:01; [2]
  Kd: 3.33 nM

## TTNIWLKLR
HLA-A*31:01; [4]
  Kd: 2.64 nM
HLA-A*33:01; [4]
  Kd: 7.25 nM

## FFTASLFLH
HLA-A*11:01; [9]
  Kd: 247 nM

## NMLKRERNR
HLA-A*33:01; [4]
  Kd: 79 nM

## YVSAIAQAK
HLA-A*68:01; [11]
  Kd: 36.2 nM

## GAMLFLISGK
HLA-A*11:01; [10]
  Kd: 42.6 nM
HLA-A*03:01; [10]
  Kd: 3.85 nM

## RMLNILNRR
HLA-A*31:01; [4]
  Kd: 2.42 nM

## HMIVSKQER
HLA-A*31:01; [11]
  Kd: ≥ 77900 nM
HLA-A*33:01; [11]
  Kd: 8610 nM
